According to paper PMC5035049, “Solution Structure of the Cuz1 AN1 Zinc Finger Domain: An Exposed LDFLP Motif Defines a Subfamily of AN1 Proteins” (PLoS ONE, 2016):

Biological target: T1, 12xHis-SUMO-Cdc48 (S. cerevisiae, UniProt P25694 1-835)
T1 construct: Cdc48, multifunctional ATPase, S. cerevisiae, full length; also called 12xHis-Sumo-tagged Cdc48; p97 in higher organisms
Experiment: pull-down; GST-tagged Cuz1 species added to 12xHis-Sumo-tagged Cdc48 or to beads alone; bound Cuz1 seen by SDS-PAGE and anti-Cuz1 immunoblot; as previously described in ref. 7
Settings: both partners purified

T1 sequence (P25694 whole entry): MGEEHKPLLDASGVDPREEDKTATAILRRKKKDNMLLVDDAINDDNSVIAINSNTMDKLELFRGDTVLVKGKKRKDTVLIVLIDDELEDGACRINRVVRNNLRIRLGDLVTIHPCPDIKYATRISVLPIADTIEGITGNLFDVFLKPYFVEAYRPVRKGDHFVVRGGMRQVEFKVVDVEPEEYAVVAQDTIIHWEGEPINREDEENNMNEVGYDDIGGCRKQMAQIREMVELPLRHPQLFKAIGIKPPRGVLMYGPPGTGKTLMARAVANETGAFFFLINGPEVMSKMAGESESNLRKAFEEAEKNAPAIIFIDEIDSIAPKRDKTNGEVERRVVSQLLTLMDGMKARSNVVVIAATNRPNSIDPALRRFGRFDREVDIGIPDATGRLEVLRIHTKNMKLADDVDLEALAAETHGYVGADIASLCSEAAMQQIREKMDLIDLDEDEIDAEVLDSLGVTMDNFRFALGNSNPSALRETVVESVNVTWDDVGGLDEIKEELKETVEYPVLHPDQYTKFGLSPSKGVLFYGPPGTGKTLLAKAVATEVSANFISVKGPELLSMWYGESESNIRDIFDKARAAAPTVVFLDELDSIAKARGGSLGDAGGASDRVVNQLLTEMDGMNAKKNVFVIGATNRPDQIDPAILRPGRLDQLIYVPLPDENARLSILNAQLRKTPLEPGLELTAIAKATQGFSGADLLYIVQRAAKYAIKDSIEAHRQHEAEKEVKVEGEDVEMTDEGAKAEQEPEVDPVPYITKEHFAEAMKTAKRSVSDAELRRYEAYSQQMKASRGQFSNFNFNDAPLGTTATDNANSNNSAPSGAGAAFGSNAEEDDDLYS

Row | Binder | binding result
1 | GST-Cuz1, full length wild type (plasmid pJH150) (natural protein, S. cerevisiae, UniProt P53899 1-274, looked up, Cuz1 (systematic name Ynl155w), S. cerevisiae, 274 amino acids, full length; also called Ynl155w; GST-tagged Cuz1) MSAAIEKETGMLDVGKHCAYCRQLDFLPFHCSFCNEDFCSNHRLKEDHHCRWLLEHEEVHKTEKSPSKSRDGSSSNDEAYFKSLLPERASVRIQRVSETREPLRGSNTAKVSSTLNSKTLDKIFKFFQRNEKRKSNNKSKKNFGSSSNKIIQLANLKKIAKGDPKIPMQNRIYIWCYLVDGDETDIAKEDTRMPLYINKMWPVGRAMDYLSIQLNVKSSTLTNSSSNDKFQLCKLKEGKQVSFYNIGASLRVTNEIKDLDTLYLVHNNADEKSN | binds
2 | GST-Cuz1 LDFL→AAAA, full length (plasmid pJH171) (natural protein, S. cerevisiae, UniProt P53899 1-274, looked up, Cuz1 (systematic name Ynl155w), S. cerevisiae, 274 amino acids, full length, with LDFL (L24, D25, F26, L27) changed to AAAA; Made by site-directed mutagenesis of pJH150; also called Cuz1^LDFL→AAAA mutant; Cuz1 LDFL mutant) MSAAIEKETGMLDVGKHCAYCRQAAAAPFHCSFCNEDFCSNHRLKEDHHCRWLLEHEEVHKTEKSPSKSRDGSSSNDEAYFKSLLPERASVRIQRVSETREPLRGSNTAKVSSTLNSKTLDKIFKFFQRNEKRKSNNKSKKNFGSSSNKIIQLANLKKIAKGDPKIPMQNRIYIWCYLVDGDETDIAKEDTRMPLYINKMWPVGRAMDYLSIQLNVKSSTLTNSSSNDKFQLCKLKEGKQVSFYNIGASLRVTNEIKDLDTLYLVHNNADEKSN | binds
